Source: paper PMC4683619

The substances below were run against TNFR1 on L929 cells (mouse (endogenous in L929)) (UniProt P25118).
Chain of UniProt P25118 (P25118 30-454): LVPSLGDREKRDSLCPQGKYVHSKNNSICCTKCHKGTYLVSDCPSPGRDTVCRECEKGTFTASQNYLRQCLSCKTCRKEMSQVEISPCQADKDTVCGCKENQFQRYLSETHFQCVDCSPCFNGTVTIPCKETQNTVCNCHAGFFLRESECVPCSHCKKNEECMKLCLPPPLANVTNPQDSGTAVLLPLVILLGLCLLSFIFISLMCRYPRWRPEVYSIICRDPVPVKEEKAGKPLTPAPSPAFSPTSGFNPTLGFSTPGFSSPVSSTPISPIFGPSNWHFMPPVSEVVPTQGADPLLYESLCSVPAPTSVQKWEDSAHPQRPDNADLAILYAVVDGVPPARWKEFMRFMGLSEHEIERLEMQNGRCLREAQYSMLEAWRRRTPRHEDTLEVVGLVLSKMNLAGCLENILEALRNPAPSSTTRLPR

Substance | cytotoxicity against L929 cells (WST-1, with actinomycin D, 24 h), EC50 [ng/mL]
PRINT PEG5K scTNF-α (N-terminal mono-PEGylated single-chain TNF-α) (ligand) | 0.00058
PRINT PEG20K scTNF-α (N-terminal mono-PEGylated single-chain TNF-α) (ligand) | 0.00062
citraconylated scTNF-α (ligand) | 0.0076
randomly PEGylated scTNF-α (directly PEGylated PEG5K scTNF-α) (ligand) | 0.0046
recombinant single-chain TNF-α, His tag cleaved, unmodified (ligand) | 0.00035
